Common to all, as to experiment: AFM single-cell force spectroscopy
Assay [1] deals with integrin α4β7 (human (endogenous in RPMI 8866–CXCR3)) (UniProt P13612).
For assay [2] the target is unchanged. The source holds these as a separate data set.
The target is the same in assay [3]. The source holds these as a separate data set.
The target is the same in assay [4]. This is another data set of the same source.
For assay [5] the target is unchanged. This is another data set of the same source.
Assay [6] shares this target. The source holds these as a separate data set.
For assay [7], the target named is T1, integrin α4β7 (human (endogenous in RPMI 8866–CXCR3), UniProt P13612 34-1032; P26010 20-798).
Assay [8] deals with T1, integrin α4β7. The source holds these as a separate data set.
The target in assay [9] is T1, integrin α4β7. This is another data set of the same source.

Read-outs that look alike come from different tables or passages of the source.

This passage reports adhesion frequency, koff and single-bond unbinding force results from PMC6080939 (The Journal of Cell Biology, 2018).

One may read the koff as a measure of how fast the partners let go of each other.

T1 sequence (P13612 34-1032, chain 1 of 2): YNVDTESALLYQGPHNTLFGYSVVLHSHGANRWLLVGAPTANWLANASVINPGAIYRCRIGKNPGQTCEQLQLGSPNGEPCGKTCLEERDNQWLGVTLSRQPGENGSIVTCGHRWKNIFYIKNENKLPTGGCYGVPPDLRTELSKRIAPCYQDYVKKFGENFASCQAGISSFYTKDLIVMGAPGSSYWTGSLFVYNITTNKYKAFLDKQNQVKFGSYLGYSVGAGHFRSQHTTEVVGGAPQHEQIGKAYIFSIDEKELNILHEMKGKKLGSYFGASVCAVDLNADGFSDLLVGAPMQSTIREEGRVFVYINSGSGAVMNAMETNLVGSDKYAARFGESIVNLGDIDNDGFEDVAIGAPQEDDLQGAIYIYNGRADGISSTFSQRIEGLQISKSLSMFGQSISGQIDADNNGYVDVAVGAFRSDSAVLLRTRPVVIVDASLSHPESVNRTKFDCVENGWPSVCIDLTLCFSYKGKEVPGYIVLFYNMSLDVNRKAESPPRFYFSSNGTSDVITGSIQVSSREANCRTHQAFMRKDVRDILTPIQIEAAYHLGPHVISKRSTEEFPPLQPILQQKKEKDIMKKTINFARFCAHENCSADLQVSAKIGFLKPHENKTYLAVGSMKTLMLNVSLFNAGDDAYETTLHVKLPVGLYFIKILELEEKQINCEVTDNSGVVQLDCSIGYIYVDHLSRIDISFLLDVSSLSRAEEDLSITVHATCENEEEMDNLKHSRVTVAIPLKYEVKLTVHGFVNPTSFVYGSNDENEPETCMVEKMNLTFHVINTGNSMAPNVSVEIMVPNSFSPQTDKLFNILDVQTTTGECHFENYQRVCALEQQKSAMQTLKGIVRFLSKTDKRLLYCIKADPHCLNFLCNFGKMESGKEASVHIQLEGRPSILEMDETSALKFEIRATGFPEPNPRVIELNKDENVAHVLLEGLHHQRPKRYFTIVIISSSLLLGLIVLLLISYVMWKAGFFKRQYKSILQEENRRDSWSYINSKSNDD
T1 sequence (P26010 20-798, chain 2 of 2): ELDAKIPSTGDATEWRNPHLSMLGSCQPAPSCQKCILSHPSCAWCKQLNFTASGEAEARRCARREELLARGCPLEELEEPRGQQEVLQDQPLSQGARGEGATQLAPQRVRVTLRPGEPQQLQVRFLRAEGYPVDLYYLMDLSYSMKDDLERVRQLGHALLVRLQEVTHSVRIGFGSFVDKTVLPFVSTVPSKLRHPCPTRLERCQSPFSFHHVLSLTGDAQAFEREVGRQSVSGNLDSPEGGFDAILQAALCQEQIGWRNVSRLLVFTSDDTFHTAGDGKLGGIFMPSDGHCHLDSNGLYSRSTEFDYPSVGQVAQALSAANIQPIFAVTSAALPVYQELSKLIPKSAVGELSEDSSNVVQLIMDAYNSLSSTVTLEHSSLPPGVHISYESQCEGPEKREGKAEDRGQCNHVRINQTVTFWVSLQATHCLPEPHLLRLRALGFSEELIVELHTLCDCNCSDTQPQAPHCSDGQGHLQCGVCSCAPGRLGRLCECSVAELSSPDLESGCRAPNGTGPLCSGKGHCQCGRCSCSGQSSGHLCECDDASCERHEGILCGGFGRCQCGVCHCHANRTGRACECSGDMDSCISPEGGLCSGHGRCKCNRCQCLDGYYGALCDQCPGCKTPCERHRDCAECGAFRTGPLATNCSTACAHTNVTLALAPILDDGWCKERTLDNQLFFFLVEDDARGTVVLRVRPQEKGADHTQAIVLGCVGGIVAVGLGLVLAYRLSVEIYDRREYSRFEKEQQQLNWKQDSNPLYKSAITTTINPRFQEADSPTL
Sequence of integrin α4β7 (human (endogenous in RPMI 8866–CXCR3)) (P13612 34-1032, chain 1 of 2): as the sequence (P13612 34-1032, chain 1 of 2) above
Sequence of integrin α4β7 (human (endogenous in RPMI 8866–CXCR3)) (P26010 20-798, chain 2 of 2, further chain): as the sequence (P26010 20-798, chain 2 of 2) above

As to “MAdCAM-1 (adsorbed on the surface for AFM single-cell force spectroscopy) (from UniProt Q13477 19-382) (ligand)”, the figures for the adhesion frequency in assay [1], in assay [2] and in assay [3] were 25%, 31% and 55%, respectively. In addition, the koff was determined as 1.03 s⁻¹ in assay [2], 1.17 s⁻¹ in [4] and 0.4 s⁻¹ in assay [5]. The values for the single-bond unbinding force in [2] and in assay [6] were 35 to 80 pN and 32 pN, respectively.

B1: VCAM-1 (adsorbed on the surface for AFM single-cell force spectroscopy) (ligand, human, UniProt P19320 25-698, looked up)
chain: FKIETTPESRYLAQIGDSVSLTCSTTGCESPFFSWRTQIDSPLNGKVTNEGTTSTLTMNPVSFGNEHSYLCTATCESRKLEKGIQVEIYSFPKDPEIHLSGPLEAGKPITVKCSVADVYPFDRLEIDLLKGDHLMKSQEFLEDADRKSLETKSLEVTFTPVIEDIGKVLVCRAKLHIDEMDSVPTVRQAVKELQVYISPKNTVISVNPSTKLQEGGSVTMTCSSEGLPAPEIFWSKKLDNGNLQHLSGNATLTLIAMRMEDSGIYVCEGVNLIGKNRKEVELIVQEKPFTVEISPGPRIAAQIGDSVMLTCSVMGCESPSFSWRTQIDSPLSGKVRSEGTNSTLTLSPVSFENEHSYLCTVTCGHKKLEKGIQVELYSFPRDPEIEMSGGLVNGSSVTVSCKVPSVYPLDRLEIELLKGETILENIEFLEDTDMKSLENKSLEMTFIPTIEDTGKALVCQAKLHIDDMEFEPKQRQSTQTLYVNVAPRDTTVLVSPSSILEEGSSVNMTCLSQGFPAPKILWSRQLPNGELQPLSENATLTLISTKMEDSGVYLCEGINQAGRSRKEVELIIQVTPKDIKLTAFPSESVKEGDTVIISCTCGNVPETWIILKKKAETGDTVLKSIDGAYTIRKAQLKDAGVYECESKNKVGSQLRSLTLDVQGRENNKDYFSPE
In the case of B1, the koff is 1.75 s⁻¹ with integrin α4β7 [7], 0.83 s⁻¹ with integrin α4β7 [8] and 1.58 s⁻¹ with integrin α4β7 [9].
